We go through two compounds from PMC10120574 (Biochemistry, 2022).

The target in series [1] is Nterm1 (UniProt position 2, ----MPLLKFD). Nature of the series: NMR. Conditions: not stated (presumably free enzyme); cited from earlier work.
Series [2] relates to 437. The series is described as follows: UV ketonization assay, decay of enol at […] nm. In kind it is biochemical, Calothrix sp. PCC 6303. The following applies: read-out: 437 / Km; 10 mM Na2HPO4, pH 8.3, 22 °C; 5-75 μM substrate.

Turning to “Malonate semialdehyde decarboxylase (Pp MSAD) (Pseudomonas pavonaceae 170)”, the pKa in series [1] is given as approximately 9.2.
On to `O=C(O)C=CC=C(O)C(=O)O` [2-HM, 2-Hydroxymuconate], for which, in series [2], the Km turned out to be 34 ± 12 µM.

A word on the pKa: it is the pH at which an ionisable group is half protonated.
